Results from article PMC4015666 (Journal of Diabetes Investigation, 2013).

Experiments:
[1] = 0.025‐U/kg dose; cited from earlier work
[2] = parameters: species or system healthy Japanese adult males; settings: in vivo
[3] = Hypoglycemia monitoring after insulin lispro injection; assay type: in vivo, healthy Japanese adult males; settings: 1.5 or 2.0 U s.c. abdomen, 12 participants, three tests each

insulin lispro
half‐life [1]: 53 min | time to the maximum insulin concentration (Tmax) [1]: approximately 37 min | Bioequivalence of AUC0–∞ [2]: bioequivalent | Bioequivalence of Cmax [2]: bioequivalent | Bioequivalence of Tmax [2]: bioequivalent | participants who developed severe hypoglycemia (<50 mg/dL) [3]: None
